Data on two molecules can be found in US7618943B2, “Fusion polypeptides, and use thereof in antivascular tumor therapy” (Oncoscience AG, priority 2003, dated 2009).

Data set [1] deals with T1, matrix metalloproteinase-2 (MMP-2) (Homo sapiens, UniProt P08253).
T1 sequence (P08253 110-660): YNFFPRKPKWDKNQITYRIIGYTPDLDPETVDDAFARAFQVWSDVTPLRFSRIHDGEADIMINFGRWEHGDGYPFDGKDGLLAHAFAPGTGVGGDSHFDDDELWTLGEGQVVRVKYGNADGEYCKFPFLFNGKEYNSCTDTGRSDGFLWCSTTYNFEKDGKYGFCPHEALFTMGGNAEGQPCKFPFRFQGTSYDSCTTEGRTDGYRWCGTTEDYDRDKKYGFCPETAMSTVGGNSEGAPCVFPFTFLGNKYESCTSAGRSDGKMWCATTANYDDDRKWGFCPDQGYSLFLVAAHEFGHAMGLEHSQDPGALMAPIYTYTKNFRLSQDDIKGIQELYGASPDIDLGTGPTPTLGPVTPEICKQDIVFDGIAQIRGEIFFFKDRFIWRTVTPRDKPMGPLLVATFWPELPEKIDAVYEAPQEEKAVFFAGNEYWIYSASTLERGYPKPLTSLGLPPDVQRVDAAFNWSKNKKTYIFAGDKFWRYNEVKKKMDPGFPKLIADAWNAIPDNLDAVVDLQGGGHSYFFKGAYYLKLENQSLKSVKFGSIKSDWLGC
Conditions: cited from earlier work.

Data set [2] has as its target integrin αvβ3 (Homo sapiens, UniProt P05106+P06756). Description: ELISA binding to immobilized purified αvβ3. Conditions: 0.1 μM protein, immobilized αvβ3. How it is done:
FIG. 4: Binding of tTF, tTF-RGD and tTF-NGR to integrin αvβ3. The binding of 0.1 μM tTF, tTF-RGD and tTF-NGR to immobilized αvβ3 was quantified with a polyclonal antibody against human TF (American Diagnostica) in an ELISA. The results are presented as median and interquartile range. The differences in binding between tTF-RGD and tTF or between tTF-NGR and tTF were statistically significant (p<0.001, Mann-Whitney test).

Data set [3] concerns human endothelial cells. Kind of data set: FACS binding of biotinylated proteins to endothelial cells in suspension. Format: cell-based. Conditions: 0.1 μM, 60 min at 4° C., streptavidin-phycoerythrin detection. The procedure:
FIG. 6: Binding of tTF and tTF-RGD to human endothelial cells. A: FACS analysis of endothelial cells incubated with 0.1 μM tTF (2) or with 0.1 μM tTF-RGD (3) for 60 min at 4° C. […] Curves 1 in A and B show the negative control.
Next the specific binding of tTF-RGD to αvβ3 on endothelial cells was evaluated. For this, the differential binding of biotinylated tTF and tTF-RGD to endothelial cells in suspension was analysed by FACS (Fluorescence Activated Cell Sorting). The fact that all endothelial cells held in tissue culture are activated, i.e. express αvβ3 molecules, is utilized experimentally. This can be detected by various immunohistochemical methods. A cultivated endothelial cell thus corresponds, in relation to its expression pattern with respect to αvβ3 to a tumor endothelial cell. Accordingly, a cultivated endothelial cell can be used as a model system for the specific binding of substances to tumor endothelial cells and also permits predictions to be made concerning the expected toxicity.
Streptavidin-phycoerythrin was used as the detection method. The measured fluorescence intensity for tTF-RGD was higher by a factor of 8 than for tTF (FIG. 6A). Furthermore, the binding of 0.1 μM tTF-RGD to endothelial cells was lowered competitively by 75% by the administration of 1 μM of the synthetic peptide GRGDSP (SEQ ID NO:33) (FIG. 6B). […]
In general terms: A flow cytometer gives signals particle by particle.

Data set [4] has as its system human malignant melanoma (M21). Kind of data set: M21 melanoma xenograft in athymic nude mice, intravenous therapy. Format: in vivo. How it is done:
The vertical arrows indicate the times of injection with the respective substances.
The vertical arrows indicate the times of the injections with the respective substances.
(§1) The tTF-RGD and tTF-NGR fusion proteins were evaluated with respect to their effects and side-effects on xenografts of human tumors in athymic nude mice. The models established in our laboratory were used for this (33, 34). The cell lines CCL185 (human adenocarcinoma of the lung) and M-21 (human melanoma) were injected subcutaneously into the flank of male BALB/c nude mice (9-12 weeks old). On attaining a tumor volume of about 50-100 mm^3 (CCL185) or 400-600 mm^3 (M−21), the mice were assigned to four groups at random. Group 1 received only physiological saline solution (NaCl), group 2 tTF, group 3 tTF-RGD, and group 4 tTF-NGR (in each case 1.5-2.0 mg/kg body weight (BW) of the protein). The injections were made in the caudal vein of the animals at intervals of 1-3 days (depending on the growth rate of the particular cell line). Considerable therapeutic activity of the fusion proteins was observed.

In data set [5] the test system is human fibrosarcoma (HT1080). Description: HT1080 fibrosarcoma xenograft in BALB/c nude mice, intravenous therapy. Format: in vivo. An excerpt:
b: Inhibition of a human fibrosarcoma (HT1080) growing as a xenograft in athymic nude mice by intravenous therapy with tTF fusion proteins (tTF-RGD, n=12) compared with the growth of the tumors with infusion of physiological saline solution (NaCl, n=15) or tTF (n=14). The vertical arrows indicate the times of the injections with the respective substances.
The antitumor activity of the tTF-RGD fusion protein was also investigated in BALB/c nude mice with fibrosarcomas (HT1080). These tumors grow rapidly and are well-vascularized. […] This effect lasted until the end of the experiment on day 7 (P=0.021 for tTF-RGD relative to the buffer control (physiological saline solution), P=0.005 for tTF-RGD relative to tTF).

Data set [6] relates to human lung carcinoma (CCL185). Description: CCL185 lung carcinoma xenograft in athymic nude mice, intravenous therapy. Format: in vivo.
Source text: FIG. 7: Inhibition of a human lung carcinoma (CCL185) growing as a xenograft in athymic nude mice by intravenous therapy with tTF fusion proteins (tTF-RGD, n=6; tTF-NGR, n=6) compared with tumor growth with infusion of physiological saline solution (NaCl, n=8) or tTF (n=1). The vertical arrows indicate the times of injection with the respective substances.
c: Inhibition of a human lung carcinoma (CCL185) growing as a xenograft in athymic nude mice by intravenous therapy with tTF fusion proteins (tTF-RGD, n=11) compared with the growth of the tumors in infusion of physiological saline solution (NaCl, n=10) or tTF (n=5). The vertical arrows indicate the times of the injections with the respective substances.
as §1

Data set [7] has as its system tumor blood vessels. Kind of data set: Macroscopy and histology of tumors after injection (thrombosis induction in tumor vessels, necrosis). Format: in vivo, mice. How it is done: FIG. 9: Macroscopic in vivo photograph of a tumor-bearing mouse 20 min after injection of the tTF-NGR fusion protein (A, left half of the picture) or NaCl (A, right half of the picture). […] After 60 min, the two mice were exsanguinated, the tumor was excised in toto and examined histologically. […] In contrast, the NaCl-treated tumor appears to be vital (C).
FIG. 10: Histology of the melanoma tumor 1 hour after intravenous injection of tTF-RGD (A and B), tTF-NGR (C and D) and common salt (E and F) in the caudal vein of the tumor-bearing nude mouse. […] The photographs are of representative areas of the tumors (A, C and E: 200× magnification, B, D and F 400× magnification; HE staining (staining described e.g. in H. C. Burck, Histologische Technik-Leitfaden für die Herstellung mikroskopischer Präparate in Unterricht und Praxis, 5th edition, Thieme Verlag, Stuttgart 1982, pages 109 ff.).
FIG. 35: Macrograph of a mouse bearing an M21 tumor at the end of treatment (day 7) with tTF-RGD fusion protein (A, C) or NaCl (B, D).
To verify the mechanism of action of thrombosis induction in tumor vessels, the following experiment was carried out: the human melanoma cell line was injected into the flank of two male BALB/c nude mice. On attaining a tumor size of approx. 500 mm^3, 2.0 mg/kg BW tTF-NGR or NaCl was injected into the caudal vein. […] After 60 min the mice were exsanguinated, the tumor was excised in toto and investigated histologically. […] In contrast, the tumor treated with NaCl appears to be vital (FIG. 9C).

For data set [8], the system named is normal tissue such as heart, kidney, liver and lung. The following applies: mouse, in vivo.
Where [9] appears, read: melanoma tumor 1 hour after intravenous injection, HE staining.

“Also recorded” adds a separate entry of the source.

integrin αvβ3, sequence (P06756 31-889 limits assumed): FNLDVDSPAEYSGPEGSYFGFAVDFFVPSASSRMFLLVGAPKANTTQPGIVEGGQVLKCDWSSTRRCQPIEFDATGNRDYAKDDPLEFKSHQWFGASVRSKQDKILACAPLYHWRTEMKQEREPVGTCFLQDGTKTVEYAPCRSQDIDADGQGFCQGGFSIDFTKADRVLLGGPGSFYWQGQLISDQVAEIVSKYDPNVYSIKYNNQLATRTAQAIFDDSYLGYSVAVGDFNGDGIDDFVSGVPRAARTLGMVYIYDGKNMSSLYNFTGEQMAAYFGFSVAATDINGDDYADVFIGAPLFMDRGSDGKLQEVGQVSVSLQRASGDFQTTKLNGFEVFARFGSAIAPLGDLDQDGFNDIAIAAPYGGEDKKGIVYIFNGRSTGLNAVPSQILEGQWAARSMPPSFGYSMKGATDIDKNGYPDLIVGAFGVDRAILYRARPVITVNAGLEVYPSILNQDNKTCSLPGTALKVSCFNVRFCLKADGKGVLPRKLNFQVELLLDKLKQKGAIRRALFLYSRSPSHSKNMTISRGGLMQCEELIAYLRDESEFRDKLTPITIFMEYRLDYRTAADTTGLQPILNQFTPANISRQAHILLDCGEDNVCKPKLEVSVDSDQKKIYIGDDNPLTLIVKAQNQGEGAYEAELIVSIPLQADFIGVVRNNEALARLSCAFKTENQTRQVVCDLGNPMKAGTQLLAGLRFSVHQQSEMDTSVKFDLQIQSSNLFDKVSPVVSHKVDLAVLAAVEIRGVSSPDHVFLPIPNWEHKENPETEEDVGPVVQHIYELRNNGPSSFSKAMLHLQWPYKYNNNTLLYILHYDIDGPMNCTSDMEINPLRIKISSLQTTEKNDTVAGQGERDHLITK
integrin αvβ3, sequence (P06756 891-1048 limits assumed): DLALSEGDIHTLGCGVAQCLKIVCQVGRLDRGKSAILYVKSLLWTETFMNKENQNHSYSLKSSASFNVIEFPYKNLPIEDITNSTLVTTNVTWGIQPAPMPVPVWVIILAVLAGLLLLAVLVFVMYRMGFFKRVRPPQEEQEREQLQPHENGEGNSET
integrin αvβ3, sequence (P05106 27-788): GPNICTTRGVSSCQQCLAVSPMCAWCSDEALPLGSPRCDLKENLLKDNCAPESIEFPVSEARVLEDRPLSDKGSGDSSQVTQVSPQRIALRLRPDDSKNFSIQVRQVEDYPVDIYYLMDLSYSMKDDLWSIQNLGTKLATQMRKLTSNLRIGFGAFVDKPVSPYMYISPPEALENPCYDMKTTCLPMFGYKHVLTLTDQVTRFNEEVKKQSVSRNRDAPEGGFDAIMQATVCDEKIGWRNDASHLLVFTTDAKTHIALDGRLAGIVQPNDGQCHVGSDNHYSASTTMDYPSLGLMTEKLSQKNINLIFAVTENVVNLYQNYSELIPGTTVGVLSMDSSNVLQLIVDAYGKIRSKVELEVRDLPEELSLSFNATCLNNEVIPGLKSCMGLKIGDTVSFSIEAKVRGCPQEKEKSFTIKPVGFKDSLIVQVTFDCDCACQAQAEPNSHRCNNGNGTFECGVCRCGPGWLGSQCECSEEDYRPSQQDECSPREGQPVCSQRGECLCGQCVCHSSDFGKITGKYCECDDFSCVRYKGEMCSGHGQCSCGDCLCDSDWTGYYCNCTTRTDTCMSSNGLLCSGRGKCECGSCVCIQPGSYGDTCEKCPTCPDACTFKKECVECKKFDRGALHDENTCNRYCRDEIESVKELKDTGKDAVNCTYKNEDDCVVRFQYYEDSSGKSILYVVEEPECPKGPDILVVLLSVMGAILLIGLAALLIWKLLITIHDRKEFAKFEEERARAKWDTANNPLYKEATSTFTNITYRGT

Take TTHWGFTL: the “inhibition of MMP-2” value in data set [1] is “selective and potent inhibition”.

B1: tTF-RGD: fusion polypeptide tTF-GRGDSP (SEQ ID NO:3), peptide coupled to C-terminus of tTF (protein)
chain: SGTTNTVAAYNLTWKSTNFKTILEWEPKPVNQVYTVQISTKSGDWKSKCFYTTDTECDLTDEIVKDVKQTYLARVFSYPAGNVESTGSAGEPLYENSPEFTPYLETNLGQPTIQSFEQVGTKVNVTVEDERTLVRRNNTFLSLRDVFGKDLIYTLYYWKSSSSGKKTAKTNTNEFLIDVDKGENYCFSVQAVIPSRTVNRKSTDSPVECMGQEKGEFRGRGDSD
modifications: Amino acid sequence of tTF-GRGDSP
On to B1, for which, in data set [2], the “binding to the αvβ3 integrin in ELISA” value is given as “demonstrated”. The “measured fluorescence intensity, factor higher than for tTF” value in data set [3] worked out at 8. Moreover, the “Mean tumor volume Day 0” value was 585 ± 85 mm^3 in data set [4] (M21 tumors, Day 0 (baseline)); 1725 ± 197 mm^3 in data set [5] (HT1080 tumors, Day 0 (baseline)); 45 ± 5 mm^3 in data set [6] (CCL185 tumors, Day 0 (baseline)). The “Mean tumor volume Day 7” value is 514 ± 81 mm^3 in data set [4] (M21 tumors, Day 7); 1241 ± 122 mm^3 in data set [5] (HT1080 tumors, Day 7); 130 ± 19 mm^3 in data set [6] (CCL185 tumors, Day 7). Besides, the “effect on tumor growth” value in data set [4] (M21 xenograft, intravenous therapy, compared with NaCl or tTF) is “Inhibition and partial remission”; in data set [5] (HT1080 xenograft, intravenous therapy, compared with control groups) it was “significant inhibition of growth; also recorded: partial regression of tumor volume”; in data set [6] (CCL185 xenograft, intravenous therapy, compared with NaCl or tTF) it was “Inhibition”. Also, the “H-E staining of tumors: thrombosis and necrosis” value in data set [7] (FIG. 36, treated mice) is “Severe thrombosis and necrosis of tumor cells”. For the same molecule, the “macroscopic appearance of tumor at the end of treatment” value in data set [7] (M21 tumor, day 7) is reported as “clear signs of necrosis”. Moreover, the “histology of tumor blood vessels (thrombus formation)” value in data set [7] (setting [9]) is given as “blood vessels appear to be thrombolytically occluded”. Also, the “histology: tumor necrosis in supply region of occluded vessel” value in data set [7] (setting [9]) was “Extensive tumor necroses”. For the same molecule, the “H-E staining of heart, lung, liver and kidney (thrombosis, necrosis)” value in data set [8] is “did not show any visible thrombosis or necrosis”.
